In JP2023550785A (dated 2023):

Molecular target: T1, spike protein of alphacoronavirus 229E-CoV (HCoV-229E, UniProt P15423 16-1115)
T1 sequence: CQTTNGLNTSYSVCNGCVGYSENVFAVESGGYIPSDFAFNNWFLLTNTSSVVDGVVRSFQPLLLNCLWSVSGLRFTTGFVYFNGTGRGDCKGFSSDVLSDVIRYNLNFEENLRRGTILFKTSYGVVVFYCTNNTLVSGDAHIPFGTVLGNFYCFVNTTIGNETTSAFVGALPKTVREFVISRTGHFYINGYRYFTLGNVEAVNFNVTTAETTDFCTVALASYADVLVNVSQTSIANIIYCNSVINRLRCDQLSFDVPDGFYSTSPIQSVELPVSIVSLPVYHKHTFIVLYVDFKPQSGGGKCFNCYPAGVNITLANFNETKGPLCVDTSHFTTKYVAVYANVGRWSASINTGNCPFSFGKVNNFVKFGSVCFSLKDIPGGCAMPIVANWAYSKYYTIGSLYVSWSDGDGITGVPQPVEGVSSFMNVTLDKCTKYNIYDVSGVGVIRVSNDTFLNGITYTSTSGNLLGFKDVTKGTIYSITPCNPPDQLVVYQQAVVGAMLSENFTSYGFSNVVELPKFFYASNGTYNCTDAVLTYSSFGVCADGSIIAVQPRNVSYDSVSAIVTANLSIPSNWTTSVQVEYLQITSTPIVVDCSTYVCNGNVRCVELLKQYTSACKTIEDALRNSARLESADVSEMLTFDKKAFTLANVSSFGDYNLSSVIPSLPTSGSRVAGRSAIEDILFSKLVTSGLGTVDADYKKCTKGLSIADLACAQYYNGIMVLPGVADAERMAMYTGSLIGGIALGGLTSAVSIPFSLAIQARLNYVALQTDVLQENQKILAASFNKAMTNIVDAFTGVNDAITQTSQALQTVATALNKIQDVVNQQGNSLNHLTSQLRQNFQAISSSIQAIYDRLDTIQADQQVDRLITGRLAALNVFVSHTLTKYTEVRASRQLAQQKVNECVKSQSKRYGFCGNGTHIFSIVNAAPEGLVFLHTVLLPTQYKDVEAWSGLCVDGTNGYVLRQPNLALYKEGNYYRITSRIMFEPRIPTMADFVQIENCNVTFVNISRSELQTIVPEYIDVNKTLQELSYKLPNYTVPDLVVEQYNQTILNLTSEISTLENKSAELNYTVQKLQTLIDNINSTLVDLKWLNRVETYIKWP
Assay: ELISA on alphacoronavirus spike proteins (Fig 37)

B1: antibody S2P6 (antibody 420 1 1), human monoclonal antibody expressed as recombinant human IgG1 (antibody, V domains shown)
VH: EVQLVQSGAEVKKPGASVKVSCKASGYTFTSQYMHWVRQAPGQGLEWIGIINPSGVHTSYAQKFQGRVTLTRDTSTSTLYMELSSLRSEDTAVYYCARGSPKGAFDYWGQGTLVTVSS
VL: not shown
binding result: no binding
